{"source": "a protein production outcome set (Wang et al. 2014)", "assay": "label from the status in PepcDB records"}
{"sequence": "NSAAIQEMNREVEAAAKRTSPVFLTGEAGSPFETVARYFHKNGTPWVSPARVEYLIDMPMELLQKAEGGVLYVGDIAQYSRNIQTGITFIIGKAERCRVRVIASCSYAAGSDGISCEEKLAGLFSESVVRIPPLS", "values": [{"measurement": "protein production", "value": "failed"}]}
{"sequence": "MASYHARQRDPLLDQNMQAMLERRGRELLGIGLLIVAFLFMLILGTYSPEDPGWMVATDEPAQNALGRIGAAISSTLMIIAGKGSWGLPIVAGAWGARFLLHRGEERALGRIVFAVIAIALGSIYAATHVPGSEWTHSFGLGGLFGDTVLGALLEILPLPAAYGLKLLSLLVGGGLVAMGLFVCGFDLRELRQVTQFLLVGLVVTYNAALQLAGRGSVQAAQLMQEKIRAHREGRAAVDAAAVRGEARAEAMPRPRSRFREPEPEPEPAPRMGFLSRLRAQAPEDDPEPVIEEAAWGRPATLRADTTRPAALRSEGLRAEPRHVEPAPAPAQPRTGLLARMPQIIRRVTDPEAELVEHALSDAAANAEGPTEDRIKARINDVIRSRVRQSTGPLSPIAAAIARREPPMARRRSGPAPMVATRRAPMELPPEPPVVAGAGEKIRFASGMVASRMPGAATARLAVSALEADAAPAHAPRLMAEAYDAYEACETGEPILTAREQLAYADEDEAAAYDEAYAAEEEVESYAAEEAAWLPHEDFDDSTDWAPEPAAPAAPMMAPAMAPKPAAAPAARAPAVRPPEAQPKPRFEEQETHYELPPLSLLACPSTIVRNTLSVDALKENARMLESVLEDYGVKGEIVDAQAGPVVTLYELEPAPGLKASRVIGLADDIARSMSALSARVSTVPGRTVIGIELPNVSREKVILREILAARDFGDSSMRLPLALGKDIAGRPVVANLAKMPHLLIAGTTGSGKSVAINTMILSLLYKLTPEECRLIMIDPKMLELSVYDGIPHLLSPVVTDPKKAVVALKWVVGEMEERYRKMSKLGVRNIEGYNGRVSEALEKGEMFKRTIQTGFDEDTGEPVFETEDLQPVRLPFIVVVVDEMADLMMVAGKEIEACIQRLAQMARASGIHLIMATQRPSVDVITGTIKANFPTRISFQVTSKIDSRTILGEQGAEQLLGMGDMLYMAGGAKITRIHGPFVSDEEVEEIVNHLKSFGPPKYMSGVVEGPEDDRADDIDAVLGLGGNTDSEDALYDQAVAIVAKDRKCSTSYIQRKLGIGYNKAARLVEQMEEQGVVTAANHVGKREILLPEQ", "values": [{"measurement": "protein production", "value": "failed"}]}
{"sequence": "MHRTTRIKITELNPHLMCVLCGGYFIDATTIIECLHSFCKTCIVRYLETSKYCPICDVQVHKTRPLLNIRSDKTLQDIVYKLVPGLFKNEMKRRRDFYAAHPSADAANGSNEDRGEVADEDKRIITDDEIISLSIEFFDQNRLDRKVNKDKEKSKEEVNDKRYLRCPAAMTVMHLRKFLRSKMDIPNTFQIDVMYEEEPLKDYYTLMDIAYIYTWRRNGPLPLKYRVRPTCKRMKISHQRDGLTNAGELESDSGSDKANSPAGGVPSTSSCLPSPSTPVQSPHPQFPHISSTMNGTSNSPSGNHQSSFANRPRKSSVNGSSATSSG", "values": [{"measurement": "protein production", "value": "failed"}]}
{"sequence": "MPLHNLTRFPRLEFIGAPTPLEYLPRFSDYLGREIFIKRDDVTPMAMGGNKLRKLEFLAADALREGADTLITAGAIQSNHVRQTAAVAAKLGLHCVALLENPIGTTAENYLTNGNRLLLDLFNTQIEMCDALTDPNAQLEELATRVEAQGFRPYVIPVGGSNALGALGYVESALEIAQQCEGAVNISSVVVASGSAGTHAGLAVGLEHLMPESELIGVTVSRSVADQLPKVVNLQQAIAKELELTASAEILLWDDYFAPGYGVPNDEGMEAVKLLARLEGILLDPVYTGKAMAGLIDGISQKRFKDEGPILFIHTGGAPALFAYHPHV", "values": [{"measurement": "protein production", "value": "failed"}]}
{"sequence": "MENWFRADTWFGRLVDVGNTFIWTYVLIALLLGLGLYFTFVSRFVQFRLLGEMGRLLVEGMNRKAFKERKGTSSFQAFAISTAARVGTGNLAGVAVAISLGGPGAIFWMWIIALIGAATGFIESTLAQIYKVKDKDGFRGGPAYYMEKALNARWAGILFAILITLCFGLIFNAVQTHTIADAFVGAYDLNPFFIGLIIAFVMAFIVFGGIRRIAVIAEVIVPTFAIAYVLIALVIVLLNITQVPSVIGLIVGNAFGIQEVVGGGFGAAIMHGIRRGLFSNEAGMGSAPNAAATAHVSHPVKQGLVQSLSVLTDTLIICSATAFLILLTDVYTVGEMGGIQLTQEALTVHIGEWSMTFVTIAISFFAFSSLLGNYYYGEANIQFISQNRALLTVFRLAFLAMILIGATSELQIIWEMADLIMGAMAIVNLIAIALLAKIAVQALTDYQHQRKQGIDPVFYKNSLPDLKNIEAWDEKPVKEKN", "values": [{"measurement": "protein production", "value": "failed"}]}
{"sequence": "MKNILKVFNTTILALIIIIATFSNSANAADSGTLNYEVYKYNTNDTSIANDYFNKPAKYIKKNGKLYVQITVNHSHWITGMSIEGHKENIISKNTAKDERTSEFEVSKLNGKIDGKIDVYIDEKVNGKPFKYDHHYNITYKFNGPTDVAGANAP", "values": [{"measurement": "protein production", "value": "not failed"}]}
{"sequence": "MSFKRDRGDYKGRIDWFTIILYLLLVVAGWFAVCGASYDFDISHLFMMGGRPMMQLLWIGLAVVIGFMVLLMETDIFESLAPVFYAAMLGLLALTILIAPDIKGSHSWLVIGPLRLQPAEFAKVTTALFLAWKLNQNDFVLRGMKAYASTFAIILIPVLLILMQNETGSALVYIAFFLALYREGMSGVFIGIAFCAVLFFVTALKLQGDVWWGHTDAAEWSVVSMAFVIGFFLVRIYTKERGRFYVVAAGLTAVTYAVAIVLSYFVSVDFVLVAYGLLAALIVWALSMAIKRYVLSYALIAVFALCSVGYFYSVDYVFNKVMQPHQQMRIRVALGIEDDLRGGGYNVDQSKIAIGSGGFMGKGFLKGTQTKLKYVPEQDTDFIFCTVGEEQGFLGSVLLLIGYATLIIRIVALAERQTKVFSRVYGHSVAAILLFHLSINVGMVIGLVPVIGIPLPFFSYGGSSLWGFTLLIFIFLRLDADRDCR", "values": [{"measurement": "protein production", "value": "failed"}]}
{"sequence": "MPEKKPVTAENSVGIDLGIEKFAILSDGIAVENPRFIKRVEKRIKKLQKQISRKKKGSKNYEKQKIRIQKKYRKLRNLRDDFHDKVSTAIAKRYDTIFIEDLNVRGMQRNHHLARSITDVSFYSFKEKLKWKADRYGKNLIEIGRFDPSSKLCSRCGNIKKDLKLSDRVYSCDACGLTIDRDYNASLDIRKIGLVKVGLVPPEFTPVEIATSGLDGIYPYRQMSVGESGRSEASAEELEHHHHHH", "values": [{"measurement": "protein production", "value": "failed"}]}
{"sequence": "MNDLTKGKPLKLIFWFTIPLLIGNIFQQFYSLSDTLIVGQTLGVKALAAVGSTGSVQFLIIGFAQGLTAGLSILTAQHFGARDFKAVRRSFAISIVVSLIVGIILTILSLIFVDHILLLMQTPTDIIADARTFLQIMLGGMLAPIAFNLLSNIIRALGDSRTPLWFLIISALINIGLELLFILVFKWGIAGASWATILAQTIATLMCVVYIIVKVPILHIGRRHFKLVWSEVKAHLNVGLPMAFQMSIIAIGTIVLQAALNSLGTNSVAATTAAQKIDQVATQPLMSFGVTMATFAAQNYGAHQYERIITGVKQTMWLSGSFSVAAGLIEIIWGKQLVGFFVGHQDMAVLNLSQTYFNVIGSTYILLSMLFIMRNTLQGLGRSAIPTLAGAAELFMRVFAALILVRIFDYAGACSSEPLAWLGSCAVLLPAYIKSVHDLRQQARMTNTVAEGAEPILNDSEKL", "values": [{"measurement": "protein production", "value": "failed"}]}
{"sequence": "MNEQPNNETLIQSSSRDLQIIEDDAFSYEGYQVVRGEFFAHTYEPSFTFNANKVSVNTACIKKLPKTDFVQILVNPDEKKLAVRPCQEDEKDSFRWCSATKKRSPRQITCRIFFAKVITLMGWNSSYRYKLLGKLIRSDNELLFVFDLTTPEIYVRTAKDDGKIKTSRTPTYPAEWQNQFGVPVEEHQSNLQINMFDGYAVFGISENTPPEEPKNPAEPQKEETHYEQSSLFTANPMH", "values": [{"measurement": "protein production", "value": "failed"}]}
{"sequence": "MNDDLSWMLDSALEIPGALHAVLISADGLLMARTQDFDKDDADRVAAAMSGVQSLSRTLAFFCEDPSQTWRQTLVEFDGGWVFLISAGEGAYLGVSASPEVDMADITFRMQQLVAQLGKRLTTPPRENLGARS", "values": [{"measurement": "protein production", "value": "failed"}]}
{"sequence": "MGGIPDITPYPLTYSLGGVIPLSSVLEMLWVEKYRPRSLDDIVDQKHVVERLKQFVKQRNMPHLLFAGPPGTGKTTAAHALAHDLFGENYRQYMLELNASDERGINVIREKVKEFARSRTPPEIPFKIVLLDEADNMTSDAQQALRRLMELYSSVTRFILIANYPSKIIDPIQSRCAFFRFQPLSKQDVIERLRYIAENEGVDYEEEALDAIYEISEGDMRKAINVLQAASYLGKVTVDAVYRVVGMAKPREVREMLATALKGDFTAARSLLRKIMIEYGMSGEDVARQIHRELFSTELKMPEELRVLAADYLGEVHYRLVEGSDDDIQLSAFLAWLTMMSRKLEV", "values": [{"measurement": "protein production", "value": "not failed"}]}
{"sequence": "MTIVWRDCFCVRSHSSNGLFMDVENNTAFWITGYQEARLGPVPEPTFPASETPYVIVRSRYSGISRGTESLVYNNQVPENEYQRMRAPFQEGEFPFPVKYGYASVGEVVDGPEALLGRNVFCLYPHQQRYAVPASAVLPLPAKVPAERAVLAANMETAVNGVWDGQPAVGDRIAVIGLGVVGLLVAWLVNRIPGVELIGVDTNEGRRSVAQALGVRFTTEPDIQNCDLVFHASGHPSGLAKALSLAGTDARVIELSWYGDTPVSVPLGHAFHPNRLTLKSSQVGQLSPERRPRWHHRRRLELALSMLSEPALDALISGESRFEQLPQVAGNILMPGADALCHRIVY", "values": [{"measurement": "protein production", "value": "failed"}]}
{"sequence": "KGTLRRITEIAEVSGIEGESIQLNFLYKYDPAKDELIRTEVPSRFIQTLSYHTGLSIEELKWEIEKRRLILDWMIEKGIRRIDEVGYYIKEFYIDEEELLKKIE", "values": [{"measurement": "protein production", "value": "failed"}]}
{"sequence": "MRLILNLIWLFFGGIWLALGYVFFGIIACIFIVTIPAGIASFRMANYALWPFGRTVVRNPKAGGFSALSNGLWFIIAGLWLAIGHLTTAAAQAITIIGIPLAIANIRMIPVTCFPFGKEIYDSNRIPFGYEPMVKF", "values": [{"measurement": "protein production", "value": "failed"}]}
{"sequence": "MKLPHALSHWFPHKYAIDAKRLGDERTLAWSNLGYWADTSDYKTACRQLADGLADAVQLSSTDRLLDLGCGQGASLQHWVEHYQIQSLCAVELQLDHVKRIQHAFPQLEKMIQGSFLDLRPDTFKPHFDVVMCIDAAYHSALTSFLTAVGSVLKSKGRLGFHYLLLSEKWTQLPVWQRQKYKYLLKAADVELDDLADVTTTEHTLRAQGFDQIQIVDMTTDVFGGFARYMASRPYHSKQNIDERKIRATAKLCQYLCDQGIVRYVQIAATKQ", "values": [{"measurement": "protein production", "value": "failed"}]}
{"sequence": "MSVGVEVLTISFVVIVIAAVIGFLARSKNVSLEQWAVGGRNIGALLIWFLLAGEIYTAFTFLGVPGYAYAFGAPAYYALSYGVLAYLTSYFILPKIWRISKKKNIMTQPDFFKERYQSTLLATIVAVVGVVFMVPYLELQVSAITDILEVMGYNVIMPAYVMIITFVLTAGYVIMNGLRSATFTAFFKDGLALIVIFSALIVIPAVQFGDLNNMMHRMVTNYSEYLYFPGHSELGLSWFVSVVLMSALGFFMWPHSFQSYISAKNDNVLKKNAVFLPVYNVLLVITVFMGFAALLYNPHLSNADDAFLIVARASFPSWWNGVVAGAITLGSMVPASVLLIASSTIISKNLYKDLINKKASDSSVKFIAQVFVAIITGVALLFAIEFPALFVNLLLLGYSGITLFFPGIVMGITWRKVTAVGVISGIITGLIVNAVFFLPLSSYSHIIYPGLVGLFADTVVTILVSLVTKAPSGEVIEEFVTA", "values": [{"measurement": "protein production", "value": "failed"}]}
{"sequence": "MSLSEPAWSLHSRLKEDTIDIGDLPLSKVLVIKDANYPWLLLVPRRPDAVEIIDLDEVQQAQLMTEISRVSRALKEITKCDKLNIAALGNLVPQLHVHIIARRTGDAAWPRPVWGVMQPLAHDATEVQNFISALRRKIWLGEGHHHHHH", "values": [{"measurement": "protein production", "value": "not failed"}]}
{"sequence": "MTKPLILASQSPRRKELLDLLQLPYSIIVSEVEEKLNRNFSPEENVQWLAKQKAKAVADLHPHAIVIGADTMVCLDGECLGKPQDQEEAASMLRRLSGRSHSVITAVSIQAENHSETFYDKTEVAFWSLSEEEIWTYIETKEPMDKAGAYGIQGRGALFVKKIDGDYYSVMGLPISKTMRALRHFDIRA", "values": [{"measurement": "protein production", "value": "not failed"}]}
{"sequence": "MMNSDRNKYRKENDMGKQVRDKEVQEIMDYIMNKGEDSEERVYKLFKMNGVIYEIACNISRNQNSETTQNQIRKFYDYTIKINSKDEKKAKIKLAMMMPQIYYAIQRKVISSDSPFVKFLEDSIDKLNKTEDFENAFNRFLNVFQAIVAYSKKSRSDRNE", "values": [{"measurement": "protein production", "value": "failed"}]}
